The subject of data set [1] is HeLa Kyoto. The data set can be described thus: solubility in G1/S (NP-40 vs SDS abundance) (log2 ratio); higher = more soluble. Particulars: cell cycle stage: G1/S.
Data set [2] has as its system HeLa Kyoto. The data set can be described thus: melting temperature (median over replicates), in situ; higher = more thermally stable.
Data set [3] concerns HeLa Kyoto. The data set can be described thus: solubility change mitosis vs G1/S (difference of NP-40 vs SDS log2 ratios) (log2 ratio difference); higher = more soluble in mitosis.
Data set [4] relates to HeLa Kyoto. The data set can be described thus: thermal stability score vs G1/S (z-score of summed log2 fold changes over temperatures); higher = more thermally stable than in G1/S.
[5] abbreviates: cell cycle stage: early G1 (4.5 h after nocodazole release).
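Throughout, for melting temperature (median over replicates), in situ: HeLa Kyoto cells synchronized by double thymidine or nocodazole block, proteins quantified by TMT10plex mass spectrometry, three independent biological replicates.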
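Throughout, for solubility change mitosis vs G1/S (difference of NP-40 vs SDS log2 ratios): synchronized HeLa Kyoto cells (double thymidine block for G1/S, nocodazole release for mitosis), protein amounts in NP-40 versus SDS lysates quantified by mass spectrometry, three biological replicates.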
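Throughout, for solubility in G1/S (NP-40 vs SDS abundance): HeLa Kyoto cells arrested at G1/S by double thymidine block, proteins quantified by TMT10plex mass spectrometry in mild NP-40 versus SDS extracts, three biological replicates.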
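Throughout, for thermal stability score vs G1/S (z-score of summed log2 fold changes over temperatures): synchronized HeLa Kyoto cells, proteins quantified by TMT10plex mass spectrometry, three biological replicates, mitosis taken 0.5 h after nocodazole release, G1/S directly after double thymidine block.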

“MAETYDFLFKFLVIGSAGTGKSCLLHQFIENKFKQDSNHTIGVEFGSRVVNVGGKTVKLQIWDTAGQERFRSVTRSYYRGAAGALLVYDITSRETYNSLAAWLTDARTLASPNIVVILCGNKKDLDPEREVTFLEASRFAQENELMFLETSALTGENVEEAFLKCARTILNKIDSGELDPERMGSGIQYGDASLRQLRQPRSAQAVAPQPCGC [RAB4B]”: the “solubility in G1/S (log2)” value in data set [1] came out at 0.181. The melting temperature came out at 56.8 °C in data set [2] (cell cycle stage: G1/S) and 57.9 °C in data set [2] (cell cycle stage: mitosis). In addition, in data set [3], the “solubility change mitosis (log2)” value is -0.29. The thermal stability score is -1.18 in data set [4] (setting [5]) and -2.73 in data set [4] (cell cycle stage: mitosis).

On to “MAANMYRVGDYVYFENSSSNPYLIRRIEELNKTANGNVEAKVVCFYRRRDISSTLIALADKHATLSVCYKAGPGADNGEEGEIEEEMENPEMVDLPEKLKHQLRHRELFLSRQLESLPATHIRGKCSVTLLNETESLKSYLEREDFFFYSLVYDPQQKTLLADKGEIRVGNRYQADITDLLKEGEEDGRDQSRLETQVWEAHNPLTDKQIDQFLVVARSVGTFARALDCSSSVRQPSLHMSAAAASRDITLFHAMDTLHKNIYDISKAISALVPQGGPVLCRDEMEEWSASEANLFEEALEKYGKDFTDIQQDFLPWKSLTSIIEYYYMWKTTDRYVQQKRLKAAEAESKLKQVYIPNYNKPNPNQISVNNVKAGVVNGTGAPGQSPGAGRACESCYTTQSYQWYSWGPPNMQCRLCASCWTYWKKYGGLKMPTRLDGERPGPNRSNMSPHGLPARSSGSPKFAMKTRQAFYLHTTKLTRIARRLCREILRPWHAARHPYLPINSAAIKAECTARLPEASQSPLVLKQAVRKPLEAVLRYLETHPRPPKPDPVKSVSSVLSSLTPAKVAPVINNGSPTILGKRSYEQHNGVDGNMKKRLLMPSRGLANHGQARHMGPSRNLLLNGKSYPTKVRLIRGGSLPPVKRRRMNWIDAPDDVFYMATEETRKIRKLLSSSETKRAARRPYKPIALRQSQALPPRPPPPAPVNDEPIVIED [MTA1]”, for which, in data set [1], the “solubility in G1/S (log2)” value was -0.0863. Besides, the melting temperature was 49.1 °C in data set [2] (cell cycle stage: G1/S) and 50.3 °C in data set [2] (cell cycle stage: mitosis). Further, the “solubility change mitosis (log2)” value in data set [3] is -0.00553. Besides, the thermal stability score in data set [4] (setting [5]) worked out at 1.08; in data set [4] (cell cycle stage: mitosis), 2.79.

Turning to “MPGGLLLGDVAPNFEANTTVGRIRFHDFLGDSWGILFSHPRDFTPVCTTELGRAAKLAPEFAKRNVKLIALSIDSVEDHLAWSKDINAYNCEEPTEKLPFPIIDDRNRELAILLGMLDPAEKDEKGMPVTARVVFVFGPDKKLKLSILYPATTGRNFDEILRVVISLQLTAEKRVATPVDWKDGDSVMVLPTIPEEEAKKLFPKGVFTKELPSGKKYLRYTPQP [PRDX6]”, the “solubility in G1/S (log2)” value in data set [1] was determined as 0.444. Further, the melting temperature was determined as 53.9 °C in data set [2] (cell cycle stage: G1/S) and 54.5 °C in data set [2] (cell cycle stage: mitosis). For the same substance, in data set [3], the “solubility change mitosis (log2)” value turned out to be 0.118. The thermal stability score is -1.5 in data set [4] (setting [5]) and -3.41 in data set [4] (cell cycle stage: mitosis).

As to “MGSGPIDPKELLKGLDSFLNRDGEVKSVDGISKIFSLMKEARKMVSRCTYLNILLQTRSPEILVKFIDVGGYKLLNNWLTYSKTTNNIPLLQQILLTLQHLPLTVDHLKQNNTAKLVKQLSKSSEDEELRKLASVLVSDWMAVIRSQSSTQPAEKDKKKRKDEGKSRTTLPERPLTEVKAETRAEEAPEKKREKPKSLRTTAPSHAKFRSTGLELETPSLVPVKKNASTVVVSDKYNLKPIPLKRQSNVAAPGDATPPAEKKYKPLNTTPNATKEIKVKIIPPQPMEGLGFLDALNSAPVPGIKIKKKKKVLSPTAAKPSPFEGKTSTEPSTAKPSSPEPAPPSEAMDADRPGTPVPPVEVPELMDTASLEPGALDAKPVESPGDPNQLTRKGRKRKSVTWPEEGKLREYFYFELDETERVNVNKIKDFGEAAKREILSDRHAFETARRLSHDNMEEKVPWVCPRPLVLPSPLVTPGSNSQERYIQAEREKGILQELFLNKESPHEPDPEPYEPIPPKLIPLDEECSMDETPYVETLEPGGSGGSPDGAGGSKLPPVLANLMGSMGAGKGPQGPGGGGINVQEILTSIMGSPNSHPSEELLKQPDYSDKIKQMLVPHGLLGPGPIANGFPPGGPGGPKGMQHFPPGPGGPMPGPHGGPGGPVGPRLLGPPPPPRGGDPFWDGPGDPMRGGPMRGGPGPGPGPYHRGRGGRGGNEPPPPPPPFRGARGGRSGGGPPNGRGGPGGGMVGGGGHRPHEGPGGGMGNSSGHRPHEGPGGGMGSGHRPHEGPGGSMGGGGGHRPHEGPGGGISGGSGHRPHEGPGGGMGAGGGHRPHEGPGGSMGGSGGHRPHEGPGHGGPHGHRPHDVPGHRGHDHRGPPPHEHRGHDGPGHGGGGHRGHDGGHSHGGDMSNRPVCRHFMMKGNCRYENNCAFYHPGVNGPPLP [PPP1R10]”, the “solubility in G1/S (log2)” value in data set [1] stood at 0.0711. The melting temperature in data set [2] (cell cycle stage: G1/S) is 51 °C; in data set [2] (cell cycle stage: mitosis), 50.8 °C. In data set [3], the “solubility change mitosis (log2)” value was determined as 0.274. Moreover, the thermal stability score in data set [4] (setting [5]) was 4.23; in data set [4] (cell cycle stage: mitosis) it was 3.65.

Regarding “MAANMYRVGDYVYFENSSSNPYLIRRIEELNKTASGNVEAKVVCFYRRRDISNTLIMLADKHAKEIEEESETTVEADLTDKQKHQLKHRELFLSRQYESLPATHIRGKCSVALLNETESVLSYLDKEDTFFYSLVYDPSLKTLLADKGEIRVGPRYQADIPEMLLEGESDEREQSKLEVKVWDPNSPLTDRQIDQFLVVARAVGTFARALDCSSSVRQPSLHMSAAAASRDITLFHAMDTLYRHSYDLSSAISVLVPLGGPVLCRDEMEEWSASEASLFEEALEKYGKDFNDIRQDFLPWKSLTSIIEYYYMWKTTDRYVQQKRLKAAEAESKLKQVYIPTYSKPNPNQISTSNGKPGAVNGAVGTTFQPQNPLLGRACESCYATQSHQWYSWGPPNMQCRLCAICWLYWKKYGGLKMPTQSEEEKLSPSPTTEDPRVRSHVSRQAMQGMPVRNTGSPKSAVKTRQAFFLHTTYFTKFARQVCKNTLRLRQAARRPFVAINYAAIRAEYADRHAELSGSPLKSKSTRKPLACIIGYLEIHPAKKPNVIRSTPSLQTPTTKRMLTTPNHTSLSILGKRNYSHHNGLDELTCCVSD [MTA3]”, in data set [1], the “solubility in G1/S (log2)” value is -0.0389. For the same substance, the melting temperature in data set [2] (cell cycle stage: G1/S) came to 49.3 °C; in data set [2] (cell cycle stage: mitosis), 49.7 °C. In data set [3], the “solubility change mitosis (log2)” value is -0.00121. Also, the thermal stability score in data set [4] (setting [5]) turned out to be 0.944; in data set [4] (cell cycle stage: mitosis), 4.09.

In the case of WDR45B, the “solubility in G1/S (log2)” value in data set [1] amounted to 0.0796. In addition, the melting temperature in data set [2] (cell cycle stage: G1/S) came to 54.5 °C; in data set [2] (cell cycle stage: mitosis) it was 57.4 °C. Also, the “solubility change mitosis (log2)” value in data set [3] is -0.118. For the same substance, the values for the thermal stability score in data set [4] (setting [5]) and in data set [4] (cell cycle stage: mitosis) were 0.71 and -1.09, respectively.

(Values after the supplement of paper PMC5998384.)
